Key:
IL-8 [1] = target: IL-8 (UniProt P10145); assay: SPR, immobilized IL-8, scFv, 25 C
IL-8 (77-mer) = IL-8 (77-mer) (UniProt P10145); assay: binding kinetics, FIG. 1B
IL-8 (72-mer) = IL-8 (72-mer) (UniProt P10145); assay: binding kinetics, FIG. 1B
IL-8 [2] = target: IL-8 (UniProt P10145); assay: SPR, scFv, preliminary KD, lowest and highest value
IL-8 [3] = target: IL-8 (UniProt P10145); assay: cell-based or functional assay

IL-8, sequence (P10145 28-99 limits assumed): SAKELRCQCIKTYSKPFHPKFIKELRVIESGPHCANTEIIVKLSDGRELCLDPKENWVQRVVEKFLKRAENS
IL-8 (72-mer), sequence (P10145 28-99 limits assumed): as above
IL-8 (77-mer), sequence (P10145 23-99 limits assumed): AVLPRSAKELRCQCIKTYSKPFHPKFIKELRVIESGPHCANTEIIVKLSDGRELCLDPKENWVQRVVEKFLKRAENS

Row | Kd (IL-8 [1]) | Kd (IL-8 (77-mer)) | Kd (IL-8 (72-mer)) | Kd (IL-8 [2]) | reduction of transmigration of neutrophils (IL-8 mediated neutrophil chemotaxis, transwell, 1 nM IL-8, 1.5 and 3 hours) (IL-8 [3]) | Binder
1 | 0.009 to 0.048 nM | 0.12 nM | 0.147 nM | 0.009 to 0.048 nM | 30 to 70% | scFv 49-31 (scFv, part only; not given: linker and domain order, V domains shown, not shown: another chain or arm of the molecule; small tags and cut ends) VH: EVQLVESGGGLVQPGGSLRLSCAASGFTFSSYYMHWVRQAPGKGLEWVSAISGGGSSTYYADSVKGRFTISRDNSKNTLYLQMNSLRAEDTAVYYCARDLRIFEGRDAGFDVWGQGTLVTVS VL: DIQMTQSPSSLSASVGDRVTITCQASQDISNYLNWYQQKPGKAPKLLIYDASNLETGVPSRFSGSGSGTDFTFTISSLQPEDIATYYCQQDDDVPWTFGQGTKVEIK
2 | 2.66 nM |  |  |  |  | scFv 49-1 (scFv, part only; not given: linker and domain order, V domains shown, not shown: another chain or arm of the molecule; small tags and cut ends) VH: EVQLVESGGGLVQPGGSLRLSCAASGFTFSSYWMHWVRQAPGKGLEWVSAISWSGGSTSYADSVKGRFTISRDNSKNTLYLQMNSLRAEDTAVYYCARDLTWWVQAFDVWGQGTLVTVSS VL: DIQMTQSPSSLSASVGDRVTITCQASQDISNYLNWYQQKPGKAPKLLIYDASNLETGVPSRFSGSGSGTDFTFTISSLQPEDIATYYCQQVDDSPLTFGQGTKVEIK

From patent US20200377587A1
